Experiment: soluble on expression in E. coli; label from the status in PepcDB or PDB records
For “MTLNYHAHGKEIEASYRRASDDSDGDKWVIFDYEGNSNTLRVKEEGTGGLEEFADSFSSGKLQFGVISVRLSSDVFPKIVLVHWQGEGVPTLRLASTTPHAEEFRRFLKTVHIVLHARSEIDIEPDAIRKEVRKLPAANANAIVESTYSMPEKVNSVYQPTNAHSELSSEARENFWSTTNQEEKRRQADEKVAHAKQQKQYEADRDRTAAAIHTKAEDFQPEKVNSVYKPTKPHVELKTVKREEFWSKMNEEEKLRQEEEKTAREQAHKQFEADRQRMASEIHSKTENYQPDKVTSVYKPTKPHVEISSSAREEFWSKMNEEEQRRQAEEKEAQAQKQKEFETDRKRIADDLHGKAQISDKPVPSSVNPAPAPAPTPSAGLVGSRKELFSSKPSGPVLPKPQVNGSPKKWPPVGTTSPPREPVNRLTEPDEPSTYTPKPIAYEPEPMVYKPEAMKPAVSYDAYEEPPAEPAPPTFLAPTPVIAPPPPEPTPAPSHYASQYDAPPVHESFEPAVPPVSAPSHYASQYDAPPEPIDSHSSSSQLPAHIASQYDMPPVMPEEPVFAPKSSPIKVAAPPIDQYDFPPAVAEQNAMALWDYQAADDTEISFDPDDIITDIDQVDSGWWKGRAPSGRVGLFPANYVKLI”, the “soluble on expression in E. coli” value was “not soluble”. For “MAHHHHHHMTFPSVQSSVHLYSNVVELAIRYTDLCAFCGRKAHEGENGSTKGDRAETSGSWHFHLARSKEPIAVSCLHAIMQRTNILGGRVNLFFTFERVPPFGGHKSRAVIQLASFHYSKNMRLCLNVAYLPQEEVRLKTVRAHVDSDCNVLEVACWRVFVFLGRST”, the “soluble on expression in E. coli” value was “not soluble”. In the case of “MKETRDLETLSVNAIRFLAIDAVEKARSGHPGMPMGMAPLAYLLFREVMRHNPLDPDWPDRDRFVLSAGHGSMLLYAVLHLTGYDLPLEELKSFRQWGSKTPGHPERGHTPGVEVTTGPLGQGISTAVGLALAERKLAAEFNRPGHVVVDHYTYVLASDGDLMEGVSGEAASLAGHWGLSKLIVFWDDNRISIDGPTDLAFTEDVLARYRAYGWQTLRVEDVNDLEALRKAIKLAKLDERPTLIAVRSHIGFGSPKQDSAKAHGEPLGPEAVEATRRNLGWPYPPFVVPEEVYRHMDMREKGRAWQEAWEKALEAYARAYPDLHQELMRRLRGELPPLPEEPPSFDKPIATRAASGRALNLLAPRLPELLGGSADLTPSNNTKAEGMEDFSRANPLGRYLHFGVREHAMGAILNGLNLHGGYRAYGGTFLVFSDYMRPAIRLAALMGVPTVFVFTHDSIALGEDGPTHQPVEHLMSLRAMPNLFVIRPADAYETFYAWLVALRRKEGPTALVLTRQAVPLLSPEKARGLLRGGYVLEDVEEPQGVLVATGSEVHLALRAQALLREKGVRVRVVSLPSFELFAAQPEAYRKEVLPPGLPVVAVEAGASLGWERYAHKVVALDRFGASAPYPEVYERLGFTPERVAEAFLSLV”, the “soluble on expression in E. coli” value is reported as “soluble”. With “MSLKKVKCITGMISLQGKRPTNEDTEIVKDKIKKDKIKFGLYAVFDGHGGSGTSQAAISVVEEELMKSELMKKKMYEEMMNEIFSKSDKILCNTVYDNSGCTAAVVLVIGRFLICANVGDSEVLVISEGKQYEVLSVQHKAKLPDEKKRITSLGVPVYGGRVYGSLAVSRSLGDKQYKGGRGAVISTPHVKVYEMTKKDKAFVISCDGIYETLNYDDVVDWVITGMKLNKAPTIIAENIAMDALEKGSKDNVSVIVSLLKWKEGHHHHHH” the “soluble on expression in E. coli” value was “not soluble”. For “MSASAPAAEGEGTPTQPASEKEPEMPGPREESEEEEDEDDEEEEEEEKEKSLIVEGKREKKKVERLTMQVSSLQREPFTIAQGKGQKLCEIERIHFFLSKKKTDELRNLHKLLYNRPGTVSSLKKNVGQFSGFPFEKGSVQYKKKEEMLKKFRNAMLKSICEVLDLERSGVNSELVKRILNFLMHPKPSGKPLPKSKKTCSKGSKKERNSSGMARKAKRTKCPEILSDESSSDEDEKKNKEESSDDEDKESEEEPPKKTAKREKPKQKATSKSKKSVKSANVKKADSSTTKKNQNSSKKESESEDSSDDEPLIKKLKKPPTDEELKETIKKLLASANLEEVTMKQICKKVYENYPTYDLTERKDFIKTTVKELIS”, the “soluble on expression in E. coli” value was “soluble”. In the case of “MTITPPTPNGDLHIGHIAGPFLAADVFTRVQRQRGHDCVLVSYSDDYQSYMLRKGLEQGVDPVVLAHRNSDRIEASLAAINIKPDNWMRPHNNPWFAEAVGEVFTALRDAGAIEFRDSSEPYCPDCAVWGYEAFARGQCNYCGAESDASQCENCAQAPDAELMSGLHCKLCQQPSQWKTAHRAFLKLADFKPQLGNRLLGQAWRKPLDSWLRDTLEHLHDWGVTRPGDGGLDLQADGACRVHTWFMGLAGYMAAFREYADSIGRPELFGQYWQSGQGTLVHFLGFDCVFSHAIVYPAQLSVLQGIKVRQRFVPNQFLKLDGLNLSTSRNHAIWVGDLARQACADSARLYLASIAPEDSEGDFRMTHFFEWREELFNGF”, the “soluble on expression in E. coli” value is reported as “not soluble”.
